Measurements reported in publication PMC9823104, “Targeted systematic evolution of an RNA platform neutralizing DNMT1 function and controlling DNA methylation”.

Experiments:
[1] = target: T1, DNMT1 (purified, Active Motif) (UniProt P26358 1-1616); experiment: BLI; BLI: AR2G tips, protein amine-coupled, assay buffer not fully stated (PBS pre-hydration); MST: 50 nM RED-tris-NTA labelled stock in 25 mM Hepes pH 7.5, 250 mM NaCl, 0.05% Tween 20 / PBS-T mix, 25 C; EMSA: 5 mM Tris pH 7.4, 5 mM MgCl2, 1 mM DTT, 3% glycerol, 100 mM NaCl, RT; ELONA: PBS, RT; pulldown: 10 mM Tris pH 7.5, 200 nM (so in the source) NaCl, 5 mM EDTA, 0.1% Triton X-100; settings: protein: commercial; for Kd: hairpin (predicted)
T1 sequence (P26358 whole entry): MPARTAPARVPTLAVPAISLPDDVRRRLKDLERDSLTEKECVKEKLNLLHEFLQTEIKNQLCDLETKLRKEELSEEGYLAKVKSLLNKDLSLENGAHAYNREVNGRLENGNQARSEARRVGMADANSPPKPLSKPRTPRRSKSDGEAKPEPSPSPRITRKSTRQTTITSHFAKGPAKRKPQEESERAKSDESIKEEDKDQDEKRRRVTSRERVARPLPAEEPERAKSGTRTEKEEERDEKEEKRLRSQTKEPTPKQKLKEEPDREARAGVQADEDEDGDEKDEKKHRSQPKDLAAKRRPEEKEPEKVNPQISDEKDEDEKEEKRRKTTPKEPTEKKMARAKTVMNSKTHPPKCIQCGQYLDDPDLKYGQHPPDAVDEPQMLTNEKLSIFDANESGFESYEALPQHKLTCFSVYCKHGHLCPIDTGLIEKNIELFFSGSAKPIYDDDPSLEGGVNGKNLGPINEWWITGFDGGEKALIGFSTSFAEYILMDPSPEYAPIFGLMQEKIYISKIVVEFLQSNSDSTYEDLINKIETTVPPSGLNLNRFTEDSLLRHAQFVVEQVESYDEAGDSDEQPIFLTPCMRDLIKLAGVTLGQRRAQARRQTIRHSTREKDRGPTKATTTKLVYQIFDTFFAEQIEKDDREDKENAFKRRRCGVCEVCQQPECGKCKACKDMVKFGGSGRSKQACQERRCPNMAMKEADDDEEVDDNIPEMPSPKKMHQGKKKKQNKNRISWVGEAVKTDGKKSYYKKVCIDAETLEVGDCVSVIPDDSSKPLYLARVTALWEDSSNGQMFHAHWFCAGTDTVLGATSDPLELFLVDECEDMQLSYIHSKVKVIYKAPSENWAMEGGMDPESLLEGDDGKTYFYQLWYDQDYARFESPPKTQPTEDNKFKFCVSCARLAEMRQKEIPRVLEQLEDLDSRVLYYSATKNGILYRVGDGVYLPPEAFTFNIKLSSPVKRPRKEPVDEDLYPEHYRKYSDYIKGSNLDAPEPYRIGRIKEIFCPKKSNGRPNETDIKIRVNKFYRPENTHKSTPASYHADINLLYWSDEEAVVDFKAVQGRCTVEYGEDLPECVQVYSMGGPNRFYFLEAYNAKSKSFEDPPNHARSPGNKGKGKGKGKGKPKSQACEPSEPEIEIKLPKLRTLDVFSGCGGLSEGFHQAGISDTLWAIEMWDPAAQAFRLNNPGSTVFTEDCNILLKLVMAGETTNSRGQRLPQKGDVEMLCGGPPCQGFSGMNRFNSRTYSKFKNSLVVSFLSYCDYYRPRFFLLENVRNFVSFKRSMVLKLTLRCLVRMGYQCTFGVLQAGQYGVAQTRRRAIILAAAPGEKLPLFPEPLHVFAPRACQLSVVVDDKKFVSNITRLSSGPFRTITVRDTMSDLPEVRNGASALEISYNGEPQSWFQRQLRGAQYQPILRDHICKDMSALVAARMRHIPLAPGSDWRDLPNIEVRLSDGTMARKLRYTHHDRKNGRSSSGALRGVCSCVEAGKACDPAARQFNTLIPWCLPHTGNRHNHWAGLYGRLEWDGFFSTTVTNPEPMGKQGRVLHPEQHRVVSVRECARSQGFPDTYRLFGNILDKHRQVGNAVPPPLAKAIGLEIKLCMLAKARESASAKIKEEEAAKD

[2] = target: T2, His-tagged DNMT1 (Homo sapiens, UniProt P26358 1-1616); experiment: MST; BLI: AR2G tips, protein amine-coupled, assay buffer not fully stated (PBS pre-hydration); MST: 50 nM RED-tris-NTA labelled stock in 25 mM Hepes pH 7.5, 250 mM NaCl, 0.05% Tween 20 / PBS-T mix, 25 C; EMSA: 5 mM Tris pH 7.4, 5 mM MgCl2, 1 mM DTT, 3% glycerol, 100 mM NaCl, RT; ELONA: PBS, RT; pulldown: 10 mM Tris pH 7.5, 200 nM (so in the source) NaCl, 5 mM EDTA, 0.1% Triton X-100; settings: protein: commercial; tags: His6; hairpin (predicted)
T2 sequence (P26358 whole entry): as above

[3] = target: T2, His-tagged DNMT1; experiment: ELONA; BLI: AR2G tips, protein amine-coupled, assay buffer not fully stated (PBS pre-hydration); MST: 50 nM RED-tris-NTA labelled stock in 25 mM Hepes pH 7.5, 250 mM NaCl, 0.05% Tween 20 / PBS-T mix, 25 C; EMSA: 5 mM Tris pH 7.4, 5 mM MgCl2, 1 mM DTT, 3% glycerol, 100 mM NaCl, RT; ELONA: PBS, RT; pulldown: 10 mM Tris pH 7.5, 200 nM (so in the source) NaCl, 5 mM EDTA, 0.1% Triton X-100; settings: protein: commercial; tags: His6; label: 3' biotin; hairpin (predicted)
[4] = target: T1, DNMT1 (purified, Active Motif); experiment: BLI; no binding detected below 100 nM RNA; BLI: AR2G tips, protein amine-coupled, assay buffer not fully stated (PBS pre-hydration); MST: 50 nM RED-tris-NTA labelled stock in 25 mM Hepes pH 7.5, 250 mM NaCl, 0.05% Tween 20 / PBS-T mix, 25 C; EMSA: 5 mM Tris pH 7.4, 5 mM MgCl2, 1 mM DTT, 3% glycerol, 100 mM NaCl, RT; ELONA: PBS, RT; pulldown: 10 mM Tris pH 7.5, 200 nM (so in the source) NaCl, 5 mM EDTA, 0.1% Triton X-100; settings: protein: commercial; hairpin (predicted)
[5] = target: T2, His-tagged DNMT1; experiment: MST; up to 1.5 uM RNA; BLI: AR2G tips, protein amine-coupled, assay buffer not fully stated (PBS pre-hydration); MST: 50 nM RED-tris-NTA labelled stock in 25 mM Hepes pH 7.5, 250 mM NaCl, 0.05% Tween 20 / PBS-T mix, 25 C; EMSA: 5 mM Tris pH 7.4, 5 mM MgCl2, 1 mM DTT, 3% glycerol, 100 mM NaCl, RT; ELONA: PBS, RT; pulldown: 10 mM Tris pH 7.5, 200 nM (so in the source) NaCl, 5 mM EDTA, 0.1% Triton X-100; settings: protein: commercial; tags: His6; unable to form stem-loop

## CUGAGGCCUAACGAAGGCUUCU (structured_RNA, 2'-F pyrimidines (all C and U)) [Ce-49 sh]
[1]
  Kd: 79.2 ± 23.7 nM
[2]
  Kd: 119 ± 34 nM

## UUACUGGGCUGAGGUAAUGGCGAGG (structured_RNA, 2'-F pyrimidines (all C and U)) [Ce-10-2 sh]
[1]
  Kd: 66.4 ± 24 nM
[2]
  Kd: 106 ± 42 nM

## UGGGCUGAGCUCAUGGCGAGGCUUC (structured_RNA, 2'-F pyrimidines (all C and U)) [Ce-9 sh biotin]
[3]
  binding result: binds

## AGGUAAUGGCGAGGCUUCUUAUCUG (structured_RNA, 2'-F pyrimidines (all C and U)) [Ce-10-1 sh biotin]
[3]
  binding result: binds

## CUGAGGCCUUGGCGAGGCUUCU (structured_RNA, 2'-F pyrimidines (all C and U)) [DNMT1 bait (2'F-Py R5)]
[4]
  Kd: 600 ± 100 nM
[2]
  Kd: 440 ± 140 nM

## CAGAGGACAAGGCGAGGCAACA (ssRNA, 2'-F pyrimidines (all C and U)) [mutR5]
[1]; unable to form stem-loop
  binding result: no binding
[5]
  binding result: no binding
